From US6018029

Target: IL-1 receptor on the THP-1 human monocyte cell line (human) (UniProt P14778)

IL-6 message level (IL-6 mRNA, Northern blot, arbitrary units) (arbitrary units): 12
Substance: IL-1B (ligand)
